The values below come from US20250230244A1 (University of Texas, published 2025).

The target of test [1] is T1, B7-H3 peptide 4 (human).
T1 peptide: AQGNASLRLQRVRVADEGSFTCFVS
Nature of the test: biolayer interferometry (Octet) traces, concentrations not printed [Peptide 4, column T-1A5]. (In general: BLI is a label-free optical method that tracks binding on a fibre tip over time.)

The target in test [2] is T2, B7-H3 peptide 6 (human).
T2 peptide: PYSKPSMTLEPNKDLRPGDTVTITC
Nature of the test: biolayer interferometry (Octet) traces, concentrations not printed [continued), Peptide 6, left column]. The procedure: (§1) The Octet RED384 System (FortdBio) was used to further characterize the chimeric and murine clones. The kinetics of the clones were tested by measuring the interaction between the antibody and its target by bio-layer interferometry technology.
(§2) The inventors generated 10 peptides from the extracellular domain of B7-H3 with a span of 25 amino acids and an overlap of 5 amino acids with each subsequent peptide.

Test [3] concerns the target T3, B7-H3 peptide 10 (human).
T3 peptide: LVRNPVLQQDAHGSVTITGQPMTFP
Nature of the test: biolayer interferometry (Octet), epitope mapping table [panel D, row Peptide 10]. The procedure: as §1, §2

Test [4] concerns the target T4, B7-H3 peptide 7 (human).
T4 peptide: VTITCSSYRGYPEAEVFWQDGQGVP
Nature of the test: biolayer interferometry (Octet), epitope mapping table [panel D, row Peptide 7]. How it is done: as §1, §2

The target of test [5] is T5, B7-H3 peptide 1 (human).
T5 peptide: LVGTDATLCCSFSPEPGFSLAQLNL
Briefly: biolayer interferometry (Octet), epitope mapping table [panel D, row Peptide 1]. How it is done:
as §1, §2

Test [6] concerns the target T6, B7-H3 peptide 8 (human).
T6 peptide: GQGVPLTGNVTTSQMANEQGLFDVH
Nature of the test: biolayer interferometry (Octet), epitope mapping table [panel D, row Peptide 8]. How it is done: as §1, §2

Test [7] concerns the target T7, B7-H3 peptide 2 (human).
T7 peptide: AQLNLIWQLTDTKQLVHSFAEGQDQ
Briefly: biolayer interferometry (Octet) traces, concentrations not printed [Peptide 2, column T-1A5]. The procedure: as §1, §2

Test [8] has as its target T8, B7-H3 peptide 3 (human).
T8 peptide: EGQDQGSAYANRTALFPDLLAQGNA
Briefly: biolayer interferometry (Octet) traces, concentrations not printed [Peptide 3, column T-1A5].

For test [9], the target named is T9, B7-H3 peptide 5 (human).
T9 construct: Said to lie in the IgV domain spanning through the FG loop
T9 peptide: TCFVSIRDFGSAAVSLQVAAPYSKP
Briefly: biolayer interferometry (Octet), epitope mapping with B7-H3 peptides [panel D, row Peptide 5]. The procedure: as §1, §2

Test [10] addresses T9, B7-H3 peptide 5. Briefly: biolayer interferometry (Octet), number beside the raw traces [panel D, T-1A5-peptide 5].
Test [11] addresses T5, B7-H3 peptide 1. Nature of the test: biolayer interferometry (Octet) traces, concentrations not printed [Peptide 1, column ChT-1A5].
In test [12] the target is T7, B7-H3 peptide 2. Nature of the test: biolayer interferometry (Octet) traces, concentrations not printed [Peptide 2, column ChT-1A5].
Test [13] has as its target T8, B7-H3 peptide 3. Briefly: biolayer interferometry (Octet) traces, concentrations not printed [Peptide 3, column ChT-1A5].
Test [14] addresses T2, B7-H3 peptide 6. Briefly: biolayer interferometry (Octet), epitope mapping table [panel D, row Peptide 6]. How it is done:
as §1, §2

Test [15] concerns the target T1, B7-H3 peptide 4. Briefly: biolayer interferometry (Octet) traces, concentrations not printed [Peptide 4, column ChT-1A5]. The procedure: as §1, §2

B1: anti-B7-H3 monoclonal antibody T-1A5 (mouse, isotype IgG1) (antibody)
heavy: QVQLQQSGAELVKPGASVKLSCKASGYTFTSYDINWVRQRPEQGLEWIGWIFPGDDTTNYNENFKGKATLTADKSSSTAYMQLTRLTSEDSAVFFCARSVGFDYWGQGTTLTVSSAKTTPPSVYPLAPGSAAQTNSMVTLGCLVKGYFPEPVTVTWNSGSLSSGVHTFPAVLQSDLYTLSSSVTVPSSTWPSETVTCNVAHPASSTKVDKKIVPRDCGCKPCICTVPEVSSVFIFPPKPKDVLTITLTPKVTCVVVDISKDDPEVQFSWFVDDVEVHTAQTQPREEQFNSTFRSVSELPIMHQDWLNGKEFKCRVNSAAFPAPIEKTISKTKGRPKAPQVYTIPPPKEQMAKDKVSLTCMITDFFPEDITVEWQWNGQPAENYKNTQPIMDTDGSYFVYSKLNVQKSNWEAGNTFTCSVLHEGLHNHHTEKSLSHSPGK
light: QIVLIQSPAIMSASPGEKVTMTCSASSSISYMYWYQQKPGTSPKRWIFETSKLASGVPARFSGSGSGTSYSLTISSMEAEDAATYYCHQRSSYPTFGGGTKLEIKRADAAPTVSIFPPSSEQLTSGGASVVCFLNNFYPKDINVKWKIDGSERQNGVLNSWTDQDSKDSTYSMSSTLTLTKDEYERHNSYTCEATHKTSTSPIVKSFNRNEC
notes: also called T-1A5A10; mAb T-1A5
Regarding B1, the binding result in [1], in test [2], in [3], in test [4], in [5] and in [6] was “no binding” each time. Besides, the binding result in [7] and in [8] was “no binding” in each case. Further, the dissociation constant (Kd) in [9] and in test [10] was 151 nM in each case.

B2: human-mouse chimeric anti-B7-H3 antibody ChT-1A5 (antibody, human IgG1, kappa)
heavy: not shown
light: QIVLIQSPAIMSASPGEKVTMTCSASSSISYMYWYQQKPGTSPKRWIFETSKLASGVPARFSGSGSGTSYSLTISSMEAEDAATYYCHQRSSYPTFGGGTKLEIKRTVAAPSVFIFPPSDEQLKSGTASVVCLLNNFYPREAKVQWKVDNALQSGNSQESVTEQDSKDSTYSLSSTLTLSKADYEKHKVYACEVTHQGLSSPVTKSFNRGEC
notes: also called chimeric T-1A5 antibody
Turning to B2, the binding result in test [11], in test [12], in test [3], in test [4], in [13] and in test [6] was “no binding” in each case. In addition, the binding result in [14] and in test [15] was “no binding” throughout.
